Laboratory results published in patent US10745460B2, “Peptides and combination of peptides for use in immunotherapy against various tumors” (Immatics Biotechnologies GmbH, priority 2015, dated 2020).

What follows are substances tested against HLA-A*02:01 (Homo sapiens, UniProt P04439, D140Y/D185E/D98H/E176V/E277Q/G131W/G231S/I119V/I121R/I166T/I218V/L300P/L318F/N151K/N90K/P208A/P217A/Q86G/Q94H/R138H/R169H/T345S) (assay: MHC binding assay: UV-ligand exchange with β2m ELISA (peptide exchange yield)). Conditions: binding to HLA-A*02:01 evaluated by peptide exchange yield (UV-ligand exchange, β2m ELISA).
Description: Candidate peptides for T cell based therapies according to the present invention were further tested for their MHC binding capacity (affinity). The individual peptide-MHC complexes were produced by UV-ligand exchange, where a UV-sensitive peptide is cleaved upon UV-irradiation, and exchanged with the peptide of interest as analyzed. Only peptide candidates that can effectively bind and stabilize the peptide-receptive MHC molecules prevent dissociation of the MHC complexes. To determine the yield of the exchange reaction, an ELISA was performed based on the detection of the light chain (β2m) of stabilized MHC complexes. The assay was performed as generally described in Rodenko et al. (Rodenko et al., 2006).
96 well MAXISorp plates (NUNC) were coated over night with 2 ug/ml streptavidin in PBS at room temperature, washed 4× and blocked for 1 h at 37° C. in 2% BSA containing blocking buffer. Refolded HLA-A*02:01/MLA-001 monomers served as standards, covering the range of 15-500 ng/ml. Peptide-MHC monomers of the UV-exchange reaction were diluted 100 fold in blocking buffer. Samples were incubated for 1 h at 37° C., washed four times, incubated with 2 ug/ml HRP conjugated anti-β2m for 1 h at 37° C., washed again and detected with TMB solution that is stopped with […]. Absorption was measured at 450 nm. Candidate peptides that show a high exchange yield (preferably higher than 50%, most preferred higher than 75%) are generally preferred for a generation and production of antibodies or fragments thereof, and/or T cell receptors or fragments thereof, as they show sufficient avidity to the MHC molecules and prevent dissociation of the MHC complexes.

Peptide exchange, +++ (≥50 = +++):
150 (VLLDMVHSL; listed as Homo sapiens) [compound 150], 153 (KLVELEHTL; listed as Homo sapiens) [compound 153], 158 (YLDPLWHQL; listed as Homo sapiens) [compound 158], 159 (QLGPVPVTI; listed as Homo sapiens) [compound 159], 160 (TLQEWLTEV; listed as Homo sapiens) [compound 160], 162 (GLLGNLLTSL; listed as Homo sapiens) [compound 162], 164 (MLIIRVPSV; listed as Homo sapiens) [compound 164], 165 (SLLDYEVSI; listed as Homo sapiens) [compound 165], 166 (LLGDSSFFL; listed as Homo sapiens) [compound 166], 167 (LVVDEGSLVSV; listed as Homo sapiens) [compound 167], 168 (VIFEGEPMYL; listed as Homo sapiens) [compound 168], 169 (ALADLSVAV; listed as Homo sapiens) [compound 169], 173 (RLIDIYKNV; listed as Homo sapiens) [compound 173], 175 (SLLDLVQSL; listed as Homo sapiens) [compound 175], 177 (ALINVLNAL; listed as Homo sapiens) [compound 177], 179 (TLGEIIKGV; listed as Homo sapiens) [compound 179], 180 (RLYEEEIRI; listed as Homo sapiens) [compound 180], 181 (LLWAPTAQA; listed as Homo sapiens) [compound 181], 182 (GLQDGFQITV; listed as Homo sapiens) [compound 182], 183 (ALSYILPYL; listed as Homo sapiens) [compound 183], 190 (SLSTELFKV; listed as Homo sapiens) [compound 190], 191 (AAIEIFEKV; listed as Homo sapiens) [compound 191], 193 (ALFHMNILL; listed as Homo sapiens) [compound 193], 195 (VIIQNLPAL; listed as Homo sapiens) [compound 195], 200 (IMPTFDLTKV; listed as Homo sapiens) [compound 200], 204 (SEWGSPHAAVP; listed as Homo sapiens) [compound 204], 207 (KLFETVEEL; listed as Homo sapiens) [compound 207], 210 (GLAGDNIYL; listed as Homo sapiens) [compound 210], 211 (LLTTVLINA; listed as Homo sapiens) [compound 211], 213 (ILAVDGVLSV; listed as Homo sapiens) [compound 213], 214 (ALFETLIQL; listed as Homo sapiens) [compound 214], 217 (LLWPSSVPA; listed as Homo sapiens) [compound 217], 218 (SLTGANITV; listed as Homo sapiens) [compound 218], 220 (ALSELERVL; listed as Homo sapiens) [compound 220], 223 (ALHPVQFYL; listed as Homo sapiens) [compound 223], 224 (LLFDWSGTGRADA; listed as Homo sapiens) [compound 224], 225 (FLPQPVPLSV; listed as Homo sapiens) [compound 225], 226 (SLAGNLQEL; listed as Homo sapiens) [compound 226], 228 (SLLELDGINLRL; listed as Homo sapiens) [compound 228], 230 (KLLNMIFSI; listed as Homo sapiens) [compound 230], 231 (LLDDIFIRL; listed as Homo sapiens) [compound 231]

Peptide exchange, ++ (≥20% = ++):
149 (NMADGQLHQV; listed as Homo sapiens) [compound 149], 151 (DISKRIQSL; listed as Homo sapiens) [compound 151], 154 (AIIKEIQTV; listed as Homo sapiens) [compound 154], 155 (TLDSYLKAV; listed as Homo sapiens) [compound 155], 157 (ILQDGQFLV; listed as Homo sapiens) [compound 157], 163 (GLEERLYTA; listed as Homo sapiens) [compound 163], 170 (FIAAVVEKV; listed as Homo sapiens) [compound 170], 171 (LLLLDVPTA; listed as Homo sapiens) [compound 171], 174 (ALYSGDLHAA; listed as Homo sapiens) [compound 174], 176 (VQSGLRILL; listed as Homo sapiens) [compound 176], 184 (ALDSTIAHL; listed as Homo sapiens) [compound 184], 185 (TLYQGLPAEV; listed as Homo sapiens) [compound 185], 187 (SILKEDPFL; listed as Homo sapiens) [compound 187], 188 (VLGEEQEGV; listed as Homo sapiens) [compound 188], 192 (TLLPSSGLVTL; listed as Homo sapiens) [compound 192], 194 (KLLEEVQLL; listed as Homo sapiens) [compound 194], 198 (ILTNKVVSV; listed as Homo sapiens) [compound 198], 199 (SVADLAHVL; listed as Homo sapiens) [compound 199], 203 (FLFVDPELV; listed as Homo sapiens) [compound 203], 208 (HLNNDRNPL; listed as Homo sapiens) [compound 208], 212 (MTLSEIHAV; listed as Homo sapiens) [compound 212], 215 (QIADIVTSV; listed as Homo sapiens) [compound 215], 216 (ALSTVTPRI; listed as Homo sapiens) [compound 216], 219 (GVVPTIQKV; listed as Homo sapiens) [compound 219], 221 (IMLNSVEEI; listed as Homo sapiens) [compound 221], 222 (LLTGVFAQL; listed as Homo sapiens) [compound 222], 229 (YLYELEHAL; listed as Homo sapiens) [compound 229]

Peptide exchange, ++++ (≥75% = ++++):
161 (NLLDENVCL; listed as Homo sapiens) [compound 161], 178 (SLVSWQLLL; listed as Homo sapiens) [compound 178], 206 (GLDAFRIFL; listed as Homo sapiens) [compound 206]

Peptide exchange, + (≥10% = +):
227 (SEMEELPSV; listed as Homo sapiens) [compound 227]
